For this test, the target named is human IL-13Rα2 on the surface of human tumour cell lines (human) (UniProt Q14627). As to the kind of experiment: cell-based or functional assay.
Sequence of human IL-13Rα2 on the surface of human tumour cell lines (human) (Q14627 27-380): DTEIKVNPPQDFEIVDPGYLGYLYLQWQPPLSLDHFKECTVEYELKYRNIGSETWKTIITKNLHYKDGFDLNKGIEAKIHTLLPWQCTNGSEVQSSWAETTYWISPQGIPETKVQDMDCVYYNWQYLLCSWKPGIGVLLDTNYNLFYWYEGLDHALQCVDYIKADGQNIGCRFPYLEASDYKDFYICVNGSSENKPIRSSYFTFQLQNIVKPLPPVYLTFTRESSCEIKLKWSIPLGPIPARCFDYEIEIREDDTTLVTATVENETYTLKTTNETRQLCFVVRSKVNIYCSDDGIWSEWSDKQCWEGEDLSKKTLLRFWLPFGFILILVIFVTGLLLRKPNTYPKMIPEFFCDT

“ab27414 (Abcam), monoclonal mouse IgG1 anti-IL-13Rα2 (antibody)” had a % internalization, 15 min, A375 of 49.3%; a % internalization, 15 min, H460R of 57.5%; a % internalization, 15 min, Hs766T of 60.8%; a % internalization, 15 min, PC3MM2 of 60.2%. This substance also registered a % internalization, 4 hours, A375 of 68.2%; a % internalization, 4 hours, H460R of 49.2%; a % internalization, 4 hours, Hs766T of 73.6%; a % internalization, 4 hours, PC3MM2 of 49.7%.
Substance “hIgG8.8-mc-3377 non-binding control ADC (antibody)” returned an IC50 (ng Ab/mL), in vitro cytotoxicity, A375 of over 400000 ng Ab/mL and an IC50 (ng Ab/mL), in vitro cytotoxicity, PC3MM2 of over 400000 ng Ab/mL.
The substance “hIgG8.8-vc-0101 non-binding control ADC (antibody)” came in with an IC50 (ng Ab/mL), in vitro cytotoxicity, A375 of over 400000 ng Ab/mL and an IC50 (ng Ab/mL), in vitro cytotoxicity, PC3MM2 of over 400000 ng Ab/mL.

The record behind these values is patent publication US20150266962A1.
